First the molecules themselves.
B1: ZBTB22 (parent)
chain: RPFDCPVCNKKFKMKHHLTEHMKT
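Also: lentivirally expressed fusions sorted by FACS into six bins by GFP to DsRed ratio, PSI derived from sequencing read proportions per bin multiplied by bin number.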

The data set covers variants of B1. The data set can be described thus: protein stability index of a GFP-peptide fusion (GPS, HEK-293T) (PSI 1-6); higher = more stable. The note with it: c terminus: a fixed tail appended.
Take RPFICPVCNKKFKMKHHLTEHMKT: the protein stability index came out at 3.62.

Regarding RPFLCPVCNKKFKMKHHLTEHMKT, the protein stability index came to 2.92. The result for RPFQCPVCNKKFKMKHHLTEHMKT reads 3.46; that for RPFVCPVCNKKFKMKHHLTEHMKT, 3.54.

For the variant RPFKCPVCNKKFKMKHHLTEHMKT, the protein stability index was 3.28.

Regarding RPFMCPVCNKKFKMKHHLTEHMKT, the protein stability index was found to be 3.5.

With RPFGCPVCNKKFKMKHHLTEHMKT, the protein stability index amounted to 2.73. For the variant RPFRCPVCNKKFKMKHHLTEHMKT, the protein stability index was 3.1. As for RPFNCPVCNKKFKMKHHLTEHMKT, the protein stability index turned out to be 2.88. RPFTCPVCNKKFKMKHHLTEHMKT: the protein stability index came to 3.43. Turning to RPFFCPVCNKKFKMKHHLTEHMKT, the protein stability index is 2.95. Consider RPFECPVCNKKFKMKHHLTEHMKT, for which the protein stability index amounted to 3.6. Consider RPFYCPVCNKKFKMKHHLTEHMKT, for which the protein stability index was determined as 3.25. As to RPFCCPVCNKKFKMKHHLTEHMKT, the protein stability index worked out at 3.54.

With RPFPCPVCNKKFKMKHHLTEHMKT, the protein stability index amounted to 1.71. As to RPFSCPVCNKKFKMKHHLTEHMKT, the protein stability index is 3.5. Take RPFWCPVCNKKFKMKHHLTEHMKT: the protein stability index turned out to be 2.6. The result for RPFHCPVCNKKFKMKHHLTEHMKT reads 2.87; that for RPFACPVCNKKFKMKHHLTEHMKT, 3.31. Regarding RPSDCPVCNKKFKMKHHLTEHMKT, the protein stability index is 2.58. Consider RPLDCPVCNKKFKMKHHLTEHMKT, for which the protein stability index came out at 2.35. The result for RPCDCPVCNKKFKMKHHLTEHMKT reads 2.98; that for RPVDCPVCNKKFKMKHHLTEHMKT, 2.85; that for RPMDCPVCNKKFKMKHHLTEHMKT, 2.45.

As for RPDDCPVCNKKFKMKHHLTEHMKT, the protein stability index was 2.93. Consider RPRDCPVCNKKFKMKHHLTEHMKT, for which the protein stability index worked out at 1.98. The figure for RPQDCPVCNKKFKMKHHLTEHMKT is 2.86; for RPNDCPVCNKKFKMKHHLTEHMKT it is 3.06. For the variant RPHDCPVCNKKFKMKHHLTEHMKT, the protein stability index turned out to be 2.56. RPKDCPVCNKKFKMKHHLTEHMKT: the protein stability index worked out at 2.61. The figure for RPYDCPVCNKKFKMKHHLTEHMKT is 3.1. Consider RPEDCPVCNKKFKMKHHLTEHMKT, for which the protein stability index turned out to be 2.6. The figure for RPWDCPVCNKKFKMKHHLTEHMKT is 2.57. For the variant RPPDCPVCNKKFKMKHHLTEHMKT, the protein stability index turned out to be 2.74. As for RPTDCPVCNKKFKMKHHLTEHMKT, the protein stability index worked out at 3.09.

In the case of RPGDCPVCNKKFKMKHHLTEHMKT, the protein stability index is 2.49. The figure for RPADCPVCNKKFKMKHHLTEHMKT is 2.58; for RPIDCPVCNKKFKMKHHLTEHMKT it is 2.55. RPFDKPVCNKKFKMKHHLTEHMKT: the protein stability index was determined as 3.19. For the variant RPFDNPVCNKKFKMKHHLTEHMKT, the protein stability index was 3.

In the case of RPFDLPVCNKKFKMKHHLTEHMKT, the protein stability index is 2.6. The result for RPFDMPVCNKKFKMKHHLTEHMKT reads 2.9; that for RPFDYPVCNKKFKMKHHLTEHMKT, 2.93. As to RPFDVPVCNKKFKMKHHLTEHMKT, the protein stability index was 2.61. For the variant RPFDWPVCNKKFKMKHHLTEHMKT, the protein stability index turned out to be 2.41.

As for RPFDGPVCNKKFKMKHHLTEHMKT, the protein stability index was found to be 3.3. On to RPFDHPVCNKKFKMKHHLTEHMKT, for which the protein stability index is 2.78. For RPFDFPVCNKKFKMKHHLTEHMKT, the protein stability index was 2.66.

For the variant RPFDTPVCNKKFKMKHHLTEHMKT, the protein stability index was determined as 3.71.

In the case of RPFDAPVCNKKFKMKHHLTEHMKT, the protein stability index stood at 2.51. Take RPFDDPVCNKKFKMKHHLTEHMKT: the protein stability index stood at 3.21. Turning to RPFDEPVCNKKFKMKHHLTEHMKT, the protein stability index amounted to 3.76.

On to RPFDRPVCNKKFKMKHHLTEHMKT, for which the protein stability index came out at 3.21. As for RPFDQPVCNKKFKMKHHLTEHMKT, the protein stability index is 2.94.

RPFDPPVCNKKFKMKHHLTEHMKT: the protein stability index was 3.23. For the variant RPFDSPVCNKKFKMKHHLTEHMKT, the protein stability index came to 3.15.

Take RPFDIPVCNKKFKMKHHLTEHMKT: the protein stability index stood at 2.64. As for HPFDCPVCNKKFKMKHHLTEHMKT, the protein stability index was found to be 2.88. For VPFDCPVCNKKFKMKHHLTEHMKT, the protein stability index came out at 2.74.

Turning to WPFDCPVCNKKFKMKHHLTEHMKT, the protein stability index was found to be 2.09. For the variant MPFDCPVCNKKFKMKHHLTEHMKT, the protein stability index came out at 2.71. YPFDCPVCNKKFKMKHHLTEHMKT: the protein stability index turned out to be 2.38.

Consider EPFDCPVCNKKFKMKHHLTEHMKT, for which the protein stability index is 3.67. Consider NPFDCPVCNKKFKMKHHLTEHMKT, for which the protein stability index was 2.64. With KPFDCPVCNKKFKMKHHLTEHMKT, the protein stability index came out at 2.74.

For IPFDCPVCNKKFKMKHHLTEHMKT, the protein stability index worked out at 2.87. For the variant LPFDCPVCNKKFKMKHHLTEHMKT, the protein stability index came to 2.35. On to APFDCPVCNKKFKMKHHLTEHMKT, for which the protein stability index turned out to be 3.

QPFDCPVCNKKFKMKHHLTEHMKT: the protein stability index was found to be 2.8. For the variant DPFDCPVCNKKFKMKHHLTEHMKT, the protein stability index came to 3.31. Turning to GPFDCPVCNKKFKMKHHLTEHMKT, the protein stability index was found to be 3.08.

Turning to PPFDCPVCNKKFKMKHHLTEHMKT, the protein stability index was found to be 3.17. As for TPFDCPVCNKKFKMKHHLTEHMKT, the protein stability index stood at 2.96.

In the case of FPFDCPVCNKKFKMKHHLTEHMKT, the protein stability index was determined as 2.38.

On to CPFDCPVCNKKFKMKHHLTEHMKT, for which the protein stability index stood at 3.18. Take SPFDCPVCNKKFKMKHHLTEHMKT: the protein stability index is 2.71. Take RPFDCCVCNKKFKMKHHLTEHMKT: the protein stability index came out at 2.21. Turning to RPFDCAVCNKKFKMKHHLTEHMKT, the protein stability index stood at 2.65.

Turning to RYFDCPVCNKKFKMKHHLTEHMKT, the protein stability index came to 2.6.

As for RAFDCPVCNKKFKMKHHLTEHMKT, the protein stability index was 2.83. Turning to RGFDCPVCNKKFKMKHHLTEHMKT, the protein stability index was determined as 2.46.

Take RTFDCPVCNKKFKMKHHLTEHMKT: the protein stability index stood at 3.84. The figure for RQFDCPVCNKKFKMKHHLTEHMKT is 2.76.

Consider RFFDCPVCNKKFKMKHHLTEHMKT, for which the protein stability index turned out to be 2.72. With RSFDCPVCNKKFKMKHHLTEHMKT, the protein stability index came out at 3.39.

Turning to RHFDCPVCNKKFKMKHHLTEHMKT, the protein stability index stood at 2.97. As to RDFDCPVCNKKFKMKHHLTEHMKT, the protein stability index was 3.24. Consider RCFDCPVCNKKFKMKHHLTEHMKT, for which the protein stability index was determined as 2.19. The result for RMFDCPVCNKKFKMKHHLTEHMKT reads 2.46; that for RWFDCPVCNKKFKMKHHLTEHMKT, 2.52. Turning to RIFDCPVCNKKFKMKHHLTEHMKT, the protein stability index was 2.37. Take RLFDCPVCNKKFKMKHHLTEHMKT: the protein stability index turned out to be 2.3. Consider REFDCPVCNKKFKMKHHLTEHMKT, for which the protein stability index is 3.26.

With RNFDCPVCNKKFKMKHHLTEHMKT, the protein stability index was 2.34. Regarding RVFDCPVCNKKFKMKHHLTEHMKT, the protein stability index came out at 2.12.

The values are drawn from the supplement of paper PMC10567573.
